Data reported in US12269859B2, “Synthetic immune receptors and methods of use thereof” (Angeles Therapeutics, Inc., priority 2016, dated 2025).

Tested on: target antigen-expressing cell line
Test: Jurkat NFAT-GFP assay, coculture with target cell lines expressing the respective target antigen (summary Table 10A)
Assay type: cell-based, human
Design: key: The signs +/−, +, 2+ etc. after the name of the cell lines indicate the relative degree of positivity on the Jurkat-NFAT-GFP assay as measured by the % GFP positive cells; +: relative degree of positivity on the Jurkat-NFAT-GFP assay as measured by the % GFP positive cells; 2+: relative degree of positivity on the Jurkat-NFAT-GFP assay as measured by the % GFP positive cells
Details: relative % GFP positive cells; for NFAT-GFP ASSAY Positive Cell lines: NALM6: SIR-expressing Jurkat-NFAT-GFP cells cocultured with NALM6; for NFAT-GFP ASSAY Positive Cell lines: HEL: SIR-expressing Jurkat-NFAT-GFP cells cocultured with HEL; for NFAT-GFP ASSAY Positive Cell lines: RAJI: SIR-expressing Jurkat-NFAT-GFP cells cocultured with RAJI
In short: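 Jurkat cells carrying an NFAT-site IL-2 promoter driving GFP were lentivirally transduced with SIRs, puromycin-selected, then cocultured with antigen-expressing target cells at E:T about 1:2 for about 4–18 hours. GFP induction was read by flow cytometry as % GFP-positive cells versus parental Jurkat-NFAT-GFP.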

B1: 030217-K05 (protein)
chain: MALPVTALLLPLALLLHAARPDEIVLTQSPATLSLSPGERATLSCSASSSVSYMHWYQQKPGQAPRLLIYDTSKLASGIPARFSGSGSGTDFTLTISSLEPEDVAVYYCFQGSVYPFTFGQGTKLEIKRGGGGSGGGGSGGGGSQVQLQESGPGLVKPSQTLSLTCTVSGGSISTSGMGVGWIRQHPGKGLEWIGHIWWDDDKRYNPALKSRVTISVDTSKNQFSLKLSSVTAADTAVYYCARMELWSYYFDYWGQGTLVTVSSLEGKPIPNPLLGLDSTGSGEDLKNVFPPEVAVFEPSKAEIAHTQKATLVCLATGFYPDHVELSWWVNGKEVHSGVCTDPQPLKEQPALNDSRYCLSSRLRVSATFWQNPRNHFRCQVQFYGLSENDEWTQDRAKPVTQIVSAEAWGRADCGITSASYHQGVLSATILYEILLGKATLYAVLVSALVLMAMVKRKDSRGRAKRSGSGATNFSLLKQAGDVEENPGPTSMALPVTALLLPLALLLHAARPDIVMTQSHKFMSTSVGDRVSVTCKASQNVGNNVAWYQQKPGQSPKVLIYSASYRYSGVPDRFTGSGSGTDFTLTISNVQSEDLAEYFCQQYNTYPFTFGSGTKLEIKGGGGSGGGGSGGGGSEVQLEESGGGLVQPGGSMKLSCVASGFTFSNYWMNWVRQSPEKGLEWVAEIRFKSHNYATHFAESVKGRFTISRDDSKSSVYLQMNNLRAEDTGIYYCTRRIGNSDYDWWYFDVWGAGTSVTVSSASTREQKLISEEDGSGIQNPDPAVYQLRDSKSSDKSVCLFTDFDSQTNVSQSKDSDVYITDKCVLDMRSMDFKSNSAVAWSNKSDFACANAFNNSIIPEDTFFPSSDVPCDVKLVEKSFETDTNLNFQNLSVIGFRILLLKVAGFNLLMTLRLWSSRAKRSGSGVKQTLNFDLLKLAGDVESNPGPSRGHMTEYKPTVRLATRDDVPRAVRTLAAAFADYPATRHTVDPDRHIERVTELQELFLTRVGLDIGKVWVADDGAAVAVWTTPESVEAGAVFAEIGPRMAELSGSRLAAQQQMEGLLAPHRPKEPAWFLATVGVSPDHQGKGLGSAVVLPGVEAAERAGVPAFLETSAPRNLPFYERLGFTVTADVEVPEGPRTWCMTRKPGA
NFAT-GFP ASSAY Positive Cell lines: NALM6: (+)

B2: 010417-E08 (protein)
chain: MALPVTALLLPLALLLHAARPLEGKPIPNPLLGLDSTGSGEDLKNVFPPEVAVFEPSKAEIAHTQKATLVCLATGFYPDHVELSWWVNGKEVHSGVCTDPQPLKEQPALNDSRYCLSSRLRVSATFWQNPRNHFRCQVQFYGLSENDEWTQDRAKPVTQIVSAEAWGRADCGITSASYHQGVLSATILYEILLGKATLYAVLVSALVLMAMVKRKDSRGRAKRSGSGATNFSLLKQAGDVEENPGPTSTMALPVTALLLPLALLLHAARPDEIVLTQSPATLSLSPGERATLSCSASSSVSYMHWYQQKPGQAPRLLIYDTSKLASGIPARFSGSGSGTDFTLTISSLEPEDVAVYYCFQGSVYPFTFGQGTKLEIKRGGGGSGGGGSGGGGSQVQLQESGPGLVKPSQTLSLTCTVSGGSISTSGMGVGWIRQHPGKGLEWIGHIWWDDDKRYNPALKSRVTISVDTSKNQFSLKLSSVTAADTAVYYCARMELWSYYFDYWGQGTLVTVSSTREAAAKQIVLTQSPAIMSASPGEKVTISCSASSSVSYMYWYQQKPGSSPKPWIYRTSNLASGVPARFSGSGSGTSYSLTISNMEAEDAAAYYCQQYHSYPTTFGGGTKLEVKGGGGSGGGGSGGGGSEVQLVESGGGLVQPKGSLKLSCAASGFSFNTYAMNWVRQAPGKGLEWIAHIRSKSNNFATYYADSVKDRFSISRDASENILFLQMNNLKTEDTAMYYCVRQGGDFPMDYWGQGTSVTVSSTREQKLISEEDGSGIQNPDPAVYQLRDSKSSDKSVCLFTDFDSQTNVSQSKDSDVYITDKCVLDMRSMDFKSNSAVAWSNKSDFACANAFNNSIIPEDTFFPSSDVPCDVKLVEKSFETDTNLNFQNLSVIGFRILLLKVAGFNLLMTLRLWSSRAKRSGSGVKQTLNFDLLKLAGDVESNPGPSRGHMTEYKPTVRLATRDDVPRAVRTLAAAFADYPATRHTVDPDRHIERVTELQELFLTRVGLDIGKVWVADDGAAVAVWTTPESVEAGAVFAEIGPRMAELSGSRLAAQQQMEGLLAPHRPKEPAWFLATVGVSPDHQGKGLGSAVVLPGVEAAERAGVPAFLETSAPRNLPFYERLGFTVTADVEVPEGPRTWCMTRKPGA
NFAT-GFP ASSAY Positive Cell lines: HEL: (+), HEL (+)
NFAT-GFP ASSAY Positive Cell lines: NALM6: (+), HEL (+)
NFAT-GFP ASSAY Positive Cell lines: RAJI: RAJI (+), NALM6

B3: 063016-E01 (protein)
chain: MALPVTALLLPLALLLHAARPDEIVLTQSPATLSLSPGERATLSCSASSSVSYMHWYQQKPGQAPRLLIYDTSKLASGIPARFSGSGSGTDFTLTISSLEPEDVAVYYCFQGSVYPFTFGQGTKLEIKRGGGGSGGGGSGGGGSQVQLQESGPGLVKPSQTLSLTCTVSGGSISTSGMGVGWIRQHPGKGLEWIGHIWWDDDKRYNPALKSRVTISVDTSKNQFSLKLSSVTAADTAVYYCARMELWSYYFDYWGQGTLVTVSSLEGKPIPNPLLGLDSTGSGEDLKNVFPPEVAVFEPSEAEISHTQKATLVCLATGFYPDHVELSWWVNGKEVHSGVCTDPQPLKEQPALNDSRYCLSSRLRVSATFWQNPRNHFRCQVQFYGLSENDEWTQDRAKPVTQIVSAEAWGRADCGFTSESYQQGVLSATILYEILLGKATLYAVLVSALVLMAMVKRKDSRGRAKRSGSGATNFSLLKQAGDVEENPGPTSATMALPVTALLLPLALLLHAARPDVQLQESGPGLVKPSQSLSLTCTVTGYSITSDYTWNWIRQFPGNKLEWMGYITYSGSTSYNPSLKSRNSITRDTSKNQFFLQLNSVTTEDTATYYCARLGRRYTMDYWGQGTSVTVSSGGGGSGGGGSGGGGSDIQMTQSSSSFSVSLGDRVTITCMASEDIYIRLAWYQQKPGNAPRLLISAATSLETGVPSRFSGSGSGKDYTLSITSLQTEDVGTYYCQQYWSSPWTFGGGTKLEINTREQKLISEEDGSGIQNPDPAVYQLRDSKSSDKSVCLFTDFDSQTNVSQSKDSDVYITDKCVLDMRSMDFKSNSAVAWSNKSDFACANAFNNSIIPEDTFFPSPESSCDVKLVEKSFETDTNLNFQNLSVIGFRILLLKVAGFNLLMTLRLWSSRAKRSGSGVKQTLNFDLLKLAGDVESNPGPSRGHMTEYKPTVRLATRDDVPRAVRTLAAAFADYPATRHTVDPDRHIERVTELQELFLTRVGLDIGKVWVADDGAAVAVWTTPESVEAGAVFAEIGPRMAELSGSRLAAQQQMEGLLAPHRPKEPAWFLATVGVSPDHQGKGLGSAVVLPGVEAAERAGVPAFLETSAPRNLPFYERLGFTVTADVEVPEGPRTWCMTRKPGA
modifications: Synthetic Immune Receptor (SIR)
NFAT-GFP ASSAY Positive Cell lines: HEL: +/−
NFAT-GFP ASSAY Positive Cell lines: RAJI: 2+

B4: 040716-G02 (protein)
chain: MALPVTALLLPLALLLHAARPDEIVLTQSPATLSLSPGERATLSCSASSSVSYMHWYQQKPGQAPRLLIYDTSKLASGIPARFSGSGSGTDFTLTISSLEPEDVAVYYCFQGSVYPFTFGQGTKLEIKRGGGGSGGGGSGGGGSQVQLQESGPGLVKPSQTLSLTCTVSGGSISTSGMGVGWIRQHPGKGLEWIGHIWWDDDKRYNPALKSRVTISVDTSKNQFSLKLSSVTAADTAVYYCARMELWSYYFDYWGQGTLVTVSSLEGKPIPNPLLGLDSTGSGEDLKNVFPPEVAVFEPSKAEIAHTQKATLVCLATGFYPDHVELSWWVNGKEVHSGVCTDPQPLKEQPALNDSRYCLSSRLRVSATFWQNPRNHFRCQVQFYGLSENDEWTQDRAKPVTQIVSAEAWGRADCGITSASYHQGVLSATILYEILLGKATLYAVLVSALVLMAMVKRKDSRGRAKRSGSGATNFSLLKQAGDVEENPGPTSTMALPVTALLLPLALLLHAARPDTIVLTQSPASLAVSLGQRATISCRASESVDSYGNSFMHWYQQKPGQPPKLLIYLASNLESGVPARFSGSGSRTDFTLTIDPVEADDAATYYCQQNNYDPWTFGGGTKLEIKGGGGSGGGGSGGGGSEVQLQQSGPELVKPGASVKMSCKASGYTFTSYVMHWVKQKPGQGLEWIGYINPYNDGTKYNEKFKGKATLTSDTSSSTAYMELNSLTSEDSAVYFCARPIYFDNDYFDYWGQGTTLKVSSTREQKLISEEDGSGIQNPDPAVYQLRDSKSSDKSVCLFTDFDSQTNVSQSKDSDVYITDKCVLDMRSMDFKSNSAVAWSNKSDFACANAFNNSIIPEDTFFPSSDVPCDVKLVEKSFETDTNLNFQNLSVIGFRILLLKVAGFNLLMTLRLWSSRAKRSGSGVKQTLNFDLLKLAGDVESNPGPSRGHMTEYKPTVRLATRDDVPRAVRTLAAAFADYPATRHTVDPDRHIERVTELQELFLTRVGLDIGKVWVADDGAAVAVWTTPESVEAGAVFAEIGPRMAELSGSRLAAQQQMEGLLAPHRPKEPAWFLATVGVSPDHQGKGLGSAVVLPGVEAAERAGVPAFLETSAPRNLPFYERLGFTVTADVEVPEGPRTWCMTRKPGA
modifications: Synthetic polynucleotide encoding a SIR
NFAT-GFP ASSAY Positive Cell lines: RAJI: RAJI (+/−)

B5: 040716-F05 (protein)
chain: MALPVTALLLPLALLLHAARPDEIVLTQSPATLSLSPGERATLSCSASSSVSYMHWYQQKPGQAPRLLIYDTSKLASGIPARFSGSGSGTDFTLTISSLEPEDVAVYYCFQGSVYPFTFGQGTKLEIKRGGGGSGGGGSGGGGSQVQLQESGPGLVKPSQTLSLTCTVSGGSISTSGMGVGWIRQHPGKGLEWIGHIWWDDDKRYNPALKSRVTISVDTSKNQFSLKLSSVTAADTAVYYCARMELWSYYFDYWGQGTLVTVSSLEGKPIPNPLLGLDSTGSGEDLKNVFPPEVAVFEPSKAEIAHTQKATLVCLATGFYPDHVELSWWVNGKEVHSGVCTDPQPLKEQPALNDSRYCLSSRLRVSATFWQNPRNHFRCQVQFYGLSENDEWTQDRAKPVTQIVSAEAWGRADCGITSASYHQGVLSATILYEILLGKATLYAVLVSALVLMAMVKRKDSRGRAKRSGSGATNFSLLKQAGDVEENPGPTSTMALPVTALLLPLALLLHAARPDIQMTQSPSSLSASLGERVSLTCRATQELSGYLSWLQQKPDGTIKRLIYAASTLDSGVPKRFSGNRSGSDYSLTISSLESEDFADYYCLQYAIYPYTFGGGTKLEIKGGGGSGGGGSGGGGSEVQLQQSGPELVKPGASVKMSCKASGYTFTSYFIHWVKQKPGQGLEWIGFINPYNDGSKYNEKFKGKATLTSDKSSSTAYMELSSLTSEDSAVYYCTRDDGYYGYAMDYWGQGTSVTVSSTREQKLISEEDGSGIQNPDPAVYQLRDSKSSDKSVCLFTDFDSQTNVSQSKDSDVYITDKCVLDMRSMDFKSNSAVAWSNKSDFACANAFNNSIIPEDTFFPSSDVPCDVKLVEKSFETDTNLNFQNLSVIGFRILLLKVAGFNLLMTLRLWSSRAKRSGSGVKQTLNFDLLKLAGDVESNPGPSRGHMTEYKPTVRLATRDDVPRAVRTLAAAFADYPATRHTVDPDRHIERVTELQELFLTRVGLDIGKVWVADDGAAVAVWTTPESVEAGAVFAEIGPRMAELSGSRLAAQQQMEGLLAPHRPKEPAWFLATVGVSPDHQGKGLGSAVVLPGVEAAERAGVPAFLETSAPRNLPFYERLGFTVTADVEVPEGPRTWCMTRKPGA
modifications: Synthetic polynucleotide encoding a SIR
NFAT-GFP ASSAY Positive Cell lines: RAJI: RAJI (+/−)
